System: O-GlcNAcylated proteome
Assay: Quantitative TMT mass spectrometry of enriched O-GlcNAcylated proteome
Type: cell-based, human
Conditions: co-expression of GFP-Sp1, versus N2(D174N)+C3, n=4
Description: Purification of GalT1 (Y289L) enzyme and labeling of O-GlcNAcylated proteins with GalNAz were performed according to the procedure of Hsieh-Wilson and co-workers (Thompson, J. W., Griffin, M. E. & Hsieh-Wilson, L. C. Methods for the Detection, Study, and Dynamic Profiling of O-GlcNAc Glycosylation. Methods Enzymol. 2018, 598, 101-135). Briefly, cell samples in 6-well plates or 15-cm dishes were harvested and washed by PBS once. The lysis buffer (PBS with 2% SDS) was added into cell pellets and heated for 5 min at 95° C., followed by the sonication to sheer DNA. Protein concentrations were determined by BCA assay. Cell lysates were reduced and alkylated with 25 mM DTT at 95° C. for 5 min and 50 mM iodoacetamide at room temperature for 1 h respectively. Proteins were precipitated by the methanol/chloroform solution (aqueous phase:CH3OH:CHCl3=4:4:1) and resuspended in 1% SDS, 20 mM HEPES (pH 7.9) buffer with a concentration of 3.75 mg/mL. For 150 μg proteins, H2O (49 μL), 2.5×GalT labeling buffer (80 μL, final concentrations: 50 mM NaCl, 20 mM HEPES, 2% NP-40, pH 7.9), 100 mM MnCl2 (11 μL), 500 μM UDP-GalNAz (10 μL), 2 mg/mL GalT1 (Y289L) (10 μL) were added into cell lysates orderly. […]
For quantitative proteomics, after reaction with Biotin-Alkyne probe, proteins were precipitated and resuspended in 400 μL PBS containing 2% SDS. […]

B1: split OGA (N2+C3): split OGA fragments N2 and C3 without nanobody (protein)
chain 1: MEQKLISEEDLAIAMVQKESQATLEERESELSSNPAASAGASLEPPAAPAPGEDNPAGAGGAAVAGAAGGARRFLCGVVEGFYGRPWVMEQRKELFRRLQKWELNTYLYAPKDDYKHRMFWREMYSVEEAEQLMTLISAAREYEIEFIYAISPGLDITFSNPKEVSTLKRKLDQVSQFGCRSFALLFDDIDHNMCAADKEVFSSFAHAQVSITNEIYQYLGEPETFLFCPTEYCGTFCYPNVSQSPYLRTVGEKLLPGIEVLWTGPKVVSKEIPVESIEEVSKIIKRAPVIWDNIHANDYDQKRLFLGPYKGRSTELIPRLKGVLTNPNCEFEANYVAIHTLATWYKSNMNGVRKDVVMTDSEDSTVSIQIKLENEGSDEDIETDVLYSPQMALKLALTEWLQEFGVPHQYSSR
chain 2: MAYPYDVPDYAAIAEKPLYTAEPVTLEDLQLLADLFYLPYEHGPKGAQMLREFQWLRANSSVVSVNCKGKDSEKIEEWRSRAAKFEEMCGLVMGMFTRLSNCANRTILYDMYSYVWDIKSIMSMVKSFVQWLGCRSHSSAQFLIGDQEPWAFRGGLAGEFQRLLPIDGANDLFFQPP
- global O-GlcNAc proteome versus inactive form: no significant difference from that of the inactive form
